According to article PMC9579148 (European Journal of Medicinal Chemistry, 2022):
No end group written: not given here.

Key:
[1] = molecular target: recombinant SARS-CoV-2 M^pro (Proteros) (SARS-CoV-2); experiment: FRET enzymatic inhibition assay
[2] = molecular target: recombinant SARS-CoV-2 M^pro (Proteros) (SARS-CoV-2); experiment: cell-based or functional assay

Binder	Kd [1] [µM]	IC50 of inhibition of M^pro enzymatic activity (FRET substrate cleavage) [2] [µM]
Ac-Gly-Tyr-His-aldehyde (SMILES CC(=O)NCC(=O)N[C@@H](Cc1ccc(O)cc1)C(=O)N[C@H](C=O)Cc1c[nH]cn1) [compound 8 (aldehydic tripeptide)]	98.9 ± 11.9	198
Ac-Gly-His-Tyr-aldehyde (SMILES CC(=O)NCC(=O)N[C@@H](Cc1c[nH]cn1)C(=O)N[C@H](C=O)Cc1ccc(O)cc1) [compound 7 (aldehydic tripeptide)]	> 213	> 425
Ac-Gly-His-His-aldehyde (SMILES CC(=O)NCC(=O)N[C@@H](Cc1c[nH]cn1)C(=O)N[C@H](C=O)Cc1c[nH]cn1) [compound 5 (aldehydic tripeptide)]	> 107	> 213
Pro-His-His-aldehyde [compound 9 (aldehydic tripeptide)]	> 85	> 170
